Measurements reported in US20220017591A1 (AstraZeneca / MedImmune, published 2022).
Like-named read-outs stand apart in the source and are kept apart here.

T1: mouse RXFP1 (mouse, UniProt Q6R6I7 1-758)
T1 sequence (looked up): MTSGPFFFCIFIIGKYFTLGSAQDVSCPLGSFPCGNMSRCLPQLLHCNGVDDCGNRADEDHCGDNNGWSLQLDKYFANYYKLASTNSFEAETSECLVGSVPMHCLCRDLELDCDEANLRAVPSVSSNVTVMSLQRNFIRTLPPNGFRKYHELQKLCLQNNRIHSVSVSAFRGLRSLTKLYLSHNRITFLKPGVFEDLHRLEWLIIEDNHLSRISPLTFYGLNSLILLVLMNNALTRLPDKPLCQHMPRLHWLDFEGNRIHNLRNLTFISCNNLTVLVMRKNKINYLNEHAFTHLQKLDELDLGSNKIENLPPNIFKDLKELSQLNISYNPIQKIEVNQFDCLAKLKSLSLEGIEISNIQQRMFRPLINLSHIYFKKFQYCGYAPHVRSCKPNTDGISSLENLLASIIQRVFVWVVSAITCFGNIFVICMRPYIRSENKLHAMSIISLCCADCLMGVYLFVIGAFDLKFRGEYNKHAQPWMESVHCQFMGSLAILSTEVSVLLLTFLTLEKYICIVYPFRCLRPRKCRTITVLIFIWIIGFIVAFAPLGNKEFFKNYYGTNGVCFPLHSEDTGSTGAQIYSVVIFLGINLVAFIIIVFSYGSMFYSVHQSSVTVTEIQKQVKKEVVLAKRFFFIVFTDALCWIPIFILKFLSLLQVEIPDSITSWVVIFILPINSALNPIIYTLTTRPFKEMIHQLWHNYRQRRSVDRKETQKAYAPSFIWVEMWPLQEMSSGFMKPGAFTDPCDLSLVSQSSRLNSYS

T2: human RXFP1 (human, UniProt Q9HBX9 1-757)
T2 sequence (looked up): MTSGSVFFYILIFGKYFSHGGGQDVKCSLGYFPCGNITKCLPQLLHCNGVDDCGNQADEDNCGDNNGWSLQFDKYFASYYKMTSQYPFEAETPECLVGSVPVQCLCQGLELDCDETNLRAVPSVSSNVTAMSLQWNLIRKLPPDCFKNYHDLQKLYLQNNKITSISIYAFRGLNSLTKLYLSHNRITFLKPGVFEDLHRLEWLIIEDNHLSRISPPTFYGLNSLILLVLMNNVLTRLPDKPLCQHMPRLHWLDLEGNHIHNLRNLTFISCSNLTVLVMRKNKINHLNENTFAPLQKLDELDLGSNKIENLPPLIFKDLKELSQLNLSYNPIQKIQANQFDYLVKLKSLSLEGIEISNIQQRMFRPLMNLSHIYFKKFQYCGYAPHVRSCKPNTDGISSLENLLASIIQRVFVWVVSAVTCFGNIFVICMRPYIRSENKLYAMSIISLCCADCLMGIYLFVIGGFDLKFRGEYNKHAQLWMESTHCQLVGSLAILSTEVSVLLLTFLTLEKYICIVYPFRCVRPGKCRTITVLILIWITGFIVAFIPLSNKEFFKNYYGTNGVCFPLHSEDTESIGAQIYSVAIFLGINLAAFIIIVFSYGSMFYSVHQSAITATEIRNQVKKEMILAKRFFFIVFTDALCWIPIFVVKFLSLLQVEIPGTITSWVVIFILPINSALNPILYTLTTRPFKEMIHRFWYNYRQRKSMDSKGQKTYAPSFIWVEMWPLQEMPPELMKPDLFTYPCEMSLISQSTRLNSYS


What was measured:
Assay in all cases: cell-based or functional assay
human RXFP2 [1] = biological target: T3, human RXFP2 (human, UniProt Q8WXD0 1-754)
mouse RXFP1 [2] = biological target: T1, mouse RXFP1
human RXFP1 [3] = biological target: T2, human RXFP1
human RXFP2 [4] = biological target: T3, human RXFP2; remark: listed apart in the source
mouse RXFP1 [5] = biological target: T1, mouse RXFP1; remark: listed apart in the source
human RXFP1 [6] = biological target: T2, human RXFP1; remark: listed apart in the source
human RXFP2 [7] = biological target: T3, human RXFP2; remark: listed apart in the source
mouse RXFP1 [8] = biological target: T1, mouse RXFP1; remark: listed apart in the source
human RXFP1 [9] = biological target: T2, human RXFP1; remark: listed apart in the source
human RXFP1 [10] = biological target: T2, human RXFP1; remark: listed apart in the source

T3 sequence (Q8WXD0 whole entry): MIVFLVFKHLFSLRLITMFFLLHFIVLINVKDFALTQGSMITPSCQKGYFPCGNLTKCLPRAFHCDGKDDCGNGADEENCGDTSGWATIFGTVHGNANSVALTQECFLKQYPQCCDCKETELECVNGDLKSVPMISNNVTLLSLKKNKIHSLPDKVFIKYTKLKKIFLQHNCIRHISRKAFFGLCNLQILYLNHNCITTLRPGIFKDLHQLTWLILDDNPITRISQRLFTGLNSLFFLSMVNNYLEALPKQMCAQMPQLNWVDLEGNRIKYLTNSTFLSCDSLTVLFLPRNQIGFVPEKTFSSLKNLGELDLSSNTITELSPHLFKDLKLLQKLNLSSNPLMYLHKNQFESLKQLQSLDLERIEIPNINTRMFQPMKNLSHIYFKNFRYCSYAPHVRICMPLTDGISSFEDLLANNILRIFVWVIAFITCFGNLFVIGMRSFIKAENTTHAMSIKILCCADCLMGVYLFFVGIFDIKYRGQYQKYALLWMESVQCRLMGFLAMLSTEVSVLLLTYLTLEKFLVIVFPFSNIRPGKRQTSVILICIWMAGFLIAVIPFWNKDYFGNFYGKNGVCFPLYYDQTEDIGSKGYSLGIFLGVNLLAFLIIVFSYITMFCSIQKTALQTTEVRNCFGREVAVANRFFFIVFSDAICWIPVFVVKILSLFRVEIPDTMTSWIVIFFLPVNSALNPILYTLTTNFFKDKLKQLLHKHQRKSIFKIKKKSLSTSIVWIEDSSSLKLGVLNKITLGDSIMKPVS

Row | Binder | EC50 hRXFP2 (M), cAMP assay (human RXFP2 [1]) [M] | EC50 mRXFP1 (M), cAMP assay (mouse RXFP1 [2]) [M] | EC50 hRXFP1 (M), cAMP assay (human RXFP1 [3]) [M] | EC50 hRXFP2 (M), cAMP assay (human RXFP2 [4]) [M] | EC50 mRXFP1 (M), cAMP assay (mouse RXFP1 [5]) [M] | EC50 hRXFP1 (M), cAMP assay (human RXFP1 [6]) [M] | EC50 hRXFP2 (M), cAMP assay (human RXFP2 [7]) [M] | EC50 mRXFP1 (M), cAMP assay (mouse RXFP1 [8]) [M] | EC50 hRXFP1 (M), cAMP assay (human RXFP1 [9]) [M] | biological activity (EC50), cAMP assay (human RXFP1 [10]) [pM]
1 | RELAX0013 (recombinant human Relaxin-2) (ligand) chain 1: DSWMEEVIKLCGRELVRAQIAICGMSTWS chain 2: QLYSALANKCCHVGCTKRSLARFC | 1.75e-09 | 7.54e-13 | 1.15e-12 | 1.75e-09 | 7.54e-13 | 1.15e-12 | 1.75e-09 | 7.54e-13 | 1.15e-12 | 
2 | RELAX0019 (Fc fusion) chain 1: GGAGGACPPCPAPEFEGGPSVFLFPPKPKDTLMISRTPEVTCVVVDVSHEDPEVKFNWYVDGVEVHNAKTKPREEQYNSTYRVVSVLTVLHQDWLNGKEYKCKVSNKALPASIEKTISKAKGQPREPQVYTLPPCREEMTKNQVSLWCLVKGFYPSDIAVEWESNGQPENNYKTTPPVLDSDGSFFLYSKLTVDKSRWQQGNVFSCSVMHEALHNHYTQKSLSLSPGGGGGSGGGGSGGGGSGGGGGSQLYSALANKCCHVGCTKRSLARFC chain 2: GGAGGACPPCPAPEFEGGPSVFLFPPKPKDTLMISRTPEVTCVVVDVSHEDPEVKFNWYVDGVEVHNAKTKPREEQYNSTYRVVSVLTVLHQDWLNGKEYKCKVSNKALPASIEKTISKAKGQPREPQVCTLPPSREEMTKNQVSLSCAVKGFYPSDIAVEWESNGQPENNYKTTPPVLDSDGSFFLVSKLTVDKSRWQQGNVFSCSVMHEALHNHYTQKSLSLSPGGGGGSGGGGSGGGGSGGGGGSSWMEEVIKLCGRELVRAQIAICGMSTWS | 3.42e-08 | 9.1e-12 | 3.57e-11 | 4.4e-08 | 2.24e-11 | 5.81e-11 | 4.4e-08 | 2.24e-11 | 5.81e-11 | 
3 | RELAX0014 (recombinant murine Relaxin-1) (ligand) chain 1: MRVSEEWMDGFIRMCGREYARELIKICGASVGR chain 2: ESGGLMSQQCCHVGCSRRSIAKLYC | 1.78e-12 | 2.37e-12 | 4.47e-12 | 1.78e-12 | 2.37e-12 | 4.47e-12 | 1.78e-12 | 2.37e-12 | 4.47e-12 | 
4 | RELAX0023 (Fc fusion) chain 1: DKTHTCPPCPAPEFEGGPSVFLFPPKPKDTLMISRTPEVTCVVVDVSHEDPEVKFNWYVDGVEVHNAKTKPREEQYNSTYRVVSVLTVLHQDWLNGKEYKCKVSNKALPASIEKTISKAKGQPREPQVYTLPPCREEMTKNQVSLWCLVKGFYPSDIAVEWESNGQPENNYKTTPPVLDSDGSFFLYSKLTVDKSRWQQGNVFSCSVMHEALHNHYTQKSLSLSPGGGGGSGGGGSGGGGSGGGGGSQLYSALANKCCHVGCTKRSLARFC chain 2: DKTHTCPPCPAPEFEGGPSVFLFPPKPKDTLMISRTPEVTCVVVDVSHEDPEVKFNWYVDGVEVHNAKTKPREEQYNSTYRVVSVLTVLHQDWLNGKEYKCKVSNKALPASIEKTISKAKGQPREPQVCTLPPSREEMTKNQVSLSCAVKGFYPSDIAVEWESNGQPENNYKTTPPVLDSDGSFFLVSKLTVDKSRWQQGNVFSCSVMHEALHNHYTQKSLSLSPGGGGGSGGGGSGGGGSGGGGGSSWMEEVIKLCGRELVRAQIAICGMSTWS | 3.24e-08 | 3.27e-11 | 3.77e-11 | 4.2e-08 | 1.36e-11 | 3.32e-11 |  |  |  | 
5 | RELAX0021 (Fc fusion) chain 1: GGAGGACPPCPAPEFEGGPSVFLFPPKPKDTLMISRTPEVTCVVVDVSHEDPEVKFNWYVDGVEVHNAKTKPREEQYNSTYRVVSVLTVLHQDWLNGKEYKCKVSNKALPASIEKTISKAKGQPREPQVYTLPPSREEMTKNQVSLWCLVKGFYPSDIAVEWESNGQPENNYKTTPPVLDSDGSFFLYSKLTVDKSRWQQGNVFSCSVMHEALHNHYTQKSLSLSPGGGGGSGGGGSGGGGSGGGGGSQLYSALANKCCHVGCTKRSLARFC chain 2: GGAGGACPPCPAPEFEGGPSVFLFPPKPKDTLMISRTPEVTCVVVDVSHEDPEVKFNWYVDGVEVHNAKTKPREEQYNSTYRVVSVLTVLHQDWLNGKEYKCKVSNKALPASIEKTISKAKGQPREPQVYTLPPSREEMTKNQVSLSCAVKGFYPSDIAVEWESNGQPENNYKTTPPVLDSDGSFFLVSKLTVDKSRWQQGNVFSCSVMHEALHNHYTQKSLSLSPGGGGGSGGGGSGGGGSGGGGGSSWMEEVIKLCGRELVRAQIAICGMSTWS |  | 4.14e-11 | 8.27e-11 |  |  |  |  |  |  | ~80
6 | RELAX0117 (Fc fusion) chain 1: QLYSALANKCCHVGCTKRSLARFCAAAGGGGSGGGGSGGGGSGGGGSACPPCPAPEFEGGPSVFLFPPKPKDTLMISRTPEVTCVVVDVSHEDPEVKFNWYVDGVEVHNAKTKPREEQYNSTYRVVSVLTVLHQDWLNGKEYKCKVSNKALPASIEKTISKAKGQPREPQVYTLPPCREEMTKNQVSLWCLVKGFYPSDIAVEWESNGQPENNYKTTPPVLDSDGSFFLYSKLTVDKSRWQQGNVFSCSVMHEALHNHYTQKSLSLSPGGGGGSGGGGSGGGGSGGGGGSQLYSALANKCCHVGCTKRSLARFC chain 2: SWMEEVIKLCGRELVRAQIAICGMSTWSAAAGGGGSGGGGSGGGGSGGGGSACPPCPAPEFEGGPSVFLFPPKPKDTLMISRTPEVTCVVVDVSHEDPEVKFNWYVDGVEVHNAKTKPREEQYNSTYRVVSVLTVLHQDWLNGKEYKCKVSNKALPASIEKTISKAKGQPREPQVCTLPPSREEMTKNQVSLSCAVKGFYPSDIAVEWESNGQPENNYKTTPPVLDSDGSFFLVSKLTVDKSRWQQGNVFSCSVMHEALHNHYTQKSLSLSPGGGGGSGGGGSGGGGSGGGGGSSWMEEVIKLCGRELVRAQIAICGMSTWS | 1.61e-08 | 1.74e-11 | 1.06e-11 |  |  |  |  |  |  | ~10
